In article PMC314469, “Protein Interaction Networks by Proteome Peptide Scanning” (PLoS Biology, 2004):

Tests used:
Experiment in all cases: SPOT array
[1] = target: T1, Boi1 SH3 (BOI1_YEAST), P38041
T1 chain: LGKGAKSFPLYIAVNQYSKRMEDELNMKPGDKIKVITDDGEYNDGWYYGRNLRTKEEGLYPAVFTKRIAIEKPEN

[2] = target: T2, Boi2 SH3 (BOI2_YEAST), P39969
T2 chain: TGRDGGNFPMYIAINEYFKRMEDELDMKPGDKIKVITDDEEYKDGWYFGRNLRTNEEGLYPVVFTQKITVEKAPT

[3] = target: T3, Myo5 SH3 (MYO5_YEAST), Q04439
T3 chain: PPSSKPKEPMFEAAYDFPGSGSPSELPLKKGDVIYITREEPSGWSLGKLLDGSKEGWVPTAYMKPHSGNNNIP

[4] = target: T4, Rvs167 SH3 (RV167_YEAST), P39743
T4 chain: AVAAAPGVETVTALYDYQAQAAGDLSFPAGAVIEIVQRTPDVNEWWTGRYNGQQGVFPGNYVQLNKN

[5] = target: Sho1 SH3 (SHO1_YEAST), P40073
[6] = target: T5, Yfr024 SH3 (LSB3_YEAST), P43603
T5 chain: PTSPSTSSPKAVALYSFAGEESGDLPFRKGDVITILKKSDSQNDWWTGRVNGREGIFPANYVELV

[7] = target: T6, Yhr016c SH3 (YSC84_YEAST), P32793
T6 chain: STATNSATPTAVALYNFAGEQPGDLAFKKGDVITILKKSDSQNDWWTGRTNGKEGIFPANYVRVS

Sequence of Sho1 SH3 (SHO1_YEAST), P40073 (P40073 295-366): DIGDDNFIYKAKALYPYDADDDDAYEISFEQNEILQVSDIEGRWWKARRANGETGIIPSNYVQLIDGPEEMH

| Binder | normalised SPOT signal, Boehringer light units (BLU); mean over the file's lines of this peptide [1] | normalised SPOT signal, Boehringer light units (BLU); mean over the file's lines of this peptide [2] | normalised SPOT signal, Boehringer light units (BLU); mean over the file's lines of this peptide [3] | normalised SPOT signal, Boehringer light units (BLU); mean over the file's lines of this peptide [4] | normalised SPOT signal, Boehringer light units (BLU); mean over the file's lines of this peptide [5] | normalised SPOT signal, Boehringer light units (BLU); mean over the file's lines of this peptide [6] | normalised SPOT signal, Boehringer light units (BLU); mean over the file's lines of this peptide [7] |
| --- | --- | --- | --- | --- | --- | --- | --- |
| IDKSKLSPRFPELK [YDR237W 35-48] | 119 | 10.4 | 233 | 54.9 | 35.5 | 133 | 22.5 |
| IGSPRHAPSRPDSI [YOL138C 1121-1134] | 182 | 28.1 | 193 | 124 | 18.4 | 1010 | 57.9 |
| IKYFKKFPKDPLAM [YPR189W 306-319] | 132 | 9.4 | 237 | 85.2 | 276 | 304 | 58.6 |
| IGKSKSAPPIPEDT [YJL095W 1392-1405] | 74.3 | 58.9 | 244 | 26 | 6.7 | 42.9 | 12.5 |
| IESFRERPLEPPRK [YDR448W 138-151] | 46.7 | 120 | 98.7 | 163 | 55.1 | 2680 | 88.1 |
| IFVTRYLPYFPIMY [YBL066C 354-367] | 60.7 | 1150 | 157 | 373 | 115 | 674 | 180 |
| IAEWKNDPNNPNFE [YMR277W 194-207] | 69.4 | 28.7 | 91.1 | 20.5 | 25.5 | 0 | 9.5 |
| ILEGKFEPVIPREW [YCL047C 191-204] | 53.6 | 71.3 | 93.2 | 80 | 9.5 | 82.5 | 40.5 |
